From patent EP1662255A2 (THE JOHNS HOPKINS UNIVERSITY SCHOOL OF MEDICINE, dated 2006)

B2: GRIP PDZ 4-6 (GST fusion) (other, UniProt P97879 471-754, looked up)
chain: EVVLTADPVTGFGIQLQGSVFATETLSSPPLISYIEADSPAERCGVLQIGDRVMAINGIPTEDSTFEEANQLLRDSSITSKVTLEIEFDVAESVIPSSGTFHVKLPKKHSVELGITISSPSSRKPGDPLVISDIKKGSVAHRTGTLELGDKLLAIDNIRLDSCSMEDAVQILQQCEDLVKLKIRKDEDNSDEQESSGAIIYTVELKRYGGPLGITISGTEEPFDPIIISSLTKGGLAERTGAIHIGDRILAINSSSLKGKPLSEAIHLLQMAGETVTLKIKKQT
notes: domain: PDZ 4-6; also called PDZ domains of GRIP; not shown: glutathione S-transferase fusion partner
B4: SAP102 PDZ1-3 (GST fusion) (other, UniProt Q62936 149-484, looked up)
chain: EIVLERGNSGLGFSIAGGIDNPHVPDDPGIFITKIIPGGAAAMDGRLGVNDCVLRVNEVDVSEVVHSRAVEALKEAGPVVRLVVRRRQPPPETIMEVNLLKGPKGLGFSIAGGIGNQHIPGDNSIYITKIIEGGAAQKDGRLQIGDRLLAVNNTNLQDVRHEEAVASLKNTSDMVYLKVAKPGSLHLNDMYAPPDYASTFTALADNHISHNSSLGYLGAVESKVTYPAPPQVPPTRYSPIPRHMLAEEDFTREPRKIILHKGSTGLGFNIVGGEDGEGIFVSFILAGGPADLSGELRRGDRILSVNGVNLRNATHEQAAAALKRAGQSVTIVAQYR
notes: domain: PDZ 1-3; also called SAP102 PDZI-3; not shown: glutathione S-transferase fusion partner

Legend:
[1] = biological target: B2; assay: GST pulldown from extracts of heterologous cells
[2] = biological target: B4; assay: GST pulldown from extracts of heterologous cells
[3] = biological target: T1, carboxy-terminal 347 amino acids of GKAP-3 (amino-terminal myc tag) (rat, UniProt P97838 631-977); assay: GST pulldown from HEK293 lysate
T1 construct: domain: carboxy-terminal 347 amino acids; also called GKAP-3/SAPAP3 carboxy-terminus
T1 sequence (looked up): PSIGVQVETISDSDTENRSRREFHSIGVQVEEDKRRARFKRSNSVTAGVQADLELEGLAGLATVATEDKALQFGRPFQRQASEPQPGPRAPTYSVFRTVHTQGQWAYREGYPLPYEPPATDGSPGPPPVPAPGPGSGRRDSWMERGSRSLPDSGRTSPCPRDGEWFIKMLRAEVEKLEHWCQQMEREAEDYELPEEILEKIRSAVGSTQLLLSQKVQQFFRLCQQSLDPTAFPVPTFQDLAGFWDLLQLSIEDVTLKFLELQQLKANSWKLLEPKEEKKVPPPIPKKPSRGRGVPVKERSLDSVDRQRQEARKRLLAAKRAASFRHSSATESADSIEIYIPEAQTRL

[4] = biological target: T2, GKAP1 (native, rat brain extracts) (rat, UniProt P97836 1-992); assay: GST pull-down from rat brain extracts
T2 construct: mature
T2 sequence (looked up): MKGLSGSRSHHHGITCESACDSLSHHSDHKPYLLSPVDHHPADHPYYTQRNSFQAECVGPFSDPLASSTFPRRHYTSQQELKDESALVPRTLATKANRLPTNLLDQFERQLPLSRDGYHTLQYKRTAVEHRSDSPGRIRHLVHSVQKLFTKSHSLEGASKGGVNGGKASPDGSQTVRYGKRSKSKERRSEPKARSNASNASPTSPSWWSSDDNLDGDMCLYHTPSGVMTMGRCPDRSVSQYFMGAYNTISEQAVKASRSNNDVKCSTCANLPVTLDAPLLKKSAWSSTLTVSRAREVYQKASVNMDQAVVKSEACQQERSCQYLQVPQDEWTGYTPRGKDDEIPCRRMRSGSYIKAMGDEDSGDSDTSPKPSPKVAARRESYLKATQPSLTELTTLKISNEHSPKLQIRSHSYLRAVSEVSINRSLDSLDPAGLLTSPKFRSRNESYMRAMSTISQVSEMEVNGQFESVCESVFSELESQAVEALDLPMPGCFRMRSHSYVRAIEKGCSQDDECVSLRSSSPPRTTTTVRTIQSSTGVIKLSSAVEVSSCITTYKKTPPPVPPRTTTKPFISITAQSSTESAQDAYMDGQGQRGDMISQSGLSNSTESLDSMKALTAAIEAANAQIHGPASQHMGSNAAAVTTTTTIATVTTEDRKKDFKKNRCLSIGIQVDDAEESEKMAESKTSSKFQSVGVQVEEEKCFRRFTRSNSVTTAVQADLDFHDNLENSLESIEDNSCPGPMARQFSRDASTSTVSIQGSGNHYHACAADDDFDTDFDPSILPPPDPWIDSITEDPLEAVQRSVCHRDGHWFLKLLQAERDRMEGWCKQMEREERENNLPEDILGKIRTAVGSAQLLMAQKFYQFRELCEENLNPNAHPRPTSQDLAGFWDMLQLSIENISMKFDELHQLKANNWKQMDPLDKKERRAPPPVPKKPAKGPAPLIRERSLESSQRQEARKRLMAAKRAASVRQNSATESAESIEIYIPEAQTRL

B1: recombinant mGluR5 carboxy-terminal 241 amino acid peptide (receptor, UniProt P31424 963-1203, looked up)
chain: AAGGGSGPGVAGAGNAGCTATGGPEPPDAGPKALYDVAEAEESFPAAARPRSPSPISTLSHLAGSAGRTDDDAPSLHSETAARSSSSQGSLMEQISSVVTRFTANISELNSMMLSTAATPGPPGTPICSSYLIPKEIQLPTTMTTFAEIQPLPAIEVTGGAQGATGVSPAQETPTGAESAPGKPDLEELVALTPPSPFRDSVDSGSTTPNSPVSESALCIPSSPKYDTLIIRDYTQSSSSL
notes: domain: carboxy-terminal 241 amino acids; Expressed in heterologous cells for GST pulldown; also called mGluR5 carboxy-terminal tail; mGluR5 C-terminal tail
- binding result [1]: no binding
- binding result [2]: no binding

Binder: B2
- binding result [3]: no binding

B3: GST-GKAP(carboxy-terminal) (other, UniProt P97836-5 591-666, looked up)
chain: MDPLDKKERRAPPPVPKKPAKGPAPLIRERSLESSQRQEARKRLMAAKRAASVRQNSATESAESIEIYIPEAQTRL
notes: domain: carboxy-terminal 76 amino acids; also called carboxy-terminal 76 amino acids of GKAP1a fused to GST; not shown: glutathione S-transferase fusion partner
- binding result [4]: no binding

Binder: B4
- binding result [3]: no binding
